Laboratory results taken from PMC4195440.

Biological target: Siglec-10 receptor overexpressed on CHO cells (UniProt Q96LC7)
UniProt Q96LC7, sequence (Q96LC7 17-697): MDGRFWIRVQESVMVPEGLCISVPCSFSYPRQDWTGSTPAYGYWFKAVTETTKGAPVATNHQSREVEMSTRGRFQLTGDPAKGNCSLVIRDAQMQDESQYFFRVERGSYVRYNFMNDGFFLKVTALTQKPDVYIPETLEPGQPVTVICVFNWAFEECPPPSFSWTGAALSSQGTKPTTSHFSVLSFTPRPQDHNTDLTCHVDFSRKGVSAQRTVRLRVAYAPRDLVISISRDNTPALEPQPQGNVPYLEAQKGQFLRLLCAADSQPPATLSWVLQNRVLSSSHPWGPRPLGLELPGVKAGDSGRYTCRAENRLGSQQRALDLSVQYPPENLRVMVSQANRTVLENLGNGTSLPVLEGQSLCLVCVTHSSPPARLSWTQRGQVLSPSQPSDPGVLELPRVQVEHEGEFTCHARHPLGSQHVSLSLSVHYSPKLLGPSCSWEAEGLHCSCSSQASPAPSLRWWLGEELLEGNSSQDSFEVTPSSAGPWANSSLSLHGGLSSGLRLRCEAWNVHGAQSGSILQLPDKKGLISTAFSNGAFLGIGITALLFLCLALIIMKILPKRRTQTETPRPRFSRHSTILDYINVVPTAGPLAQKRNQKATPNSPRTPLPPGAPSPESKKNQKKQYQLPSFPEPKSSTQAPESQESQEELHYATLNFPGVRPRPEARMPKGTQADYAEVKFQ

Question: “flagella (flagellin FlaA) of C. jejuni 11168H WT (from UniProt P56963 1-572) (natural protein)” was tested. Which IL-10 secretion (ELISA) of Siglec-10 transduced RAW264.7 cells against GFP control-transduced cells, infection with live 11168H WT, MOI 100, 24 hours did it give?
Answer: The IL-10 secretion (ELISA) of Siglec-10 transduced RAW264.7 cells against GFP control-transduced cells, infection with live 11168H WT, MOI 100, 24 hours was 2 fold.
